Assay results taken from patent US20140271456A1, “RADIOTRACER IMAGING USING SODIUM IODIDE SYMPORTER POLYPEPTIDES” (Mayo Foundation for Medical Education and Research, priority 2013, published 2014).
Residue numbers refer to the chain shown, from its start. “Also recorded” adds a separate entry of the source.

Columns and labels:
[1] = tested on: NIS expressing organs (thyroid and stomach) and BXPC-3-hNIS tumor; experiment: SPECT/CT dual isotope imaging of nude mice with BXPC-3-hNIS tumors; details: four hours after i.p. 250 μCi of each isotope
Method: FIG. 6. SPECT/CT dual isotope imaging of nude mice implanted with SQ BXPX-3-hNIS tumors. Animals were injected i.p with 250 μCi ^125I and 250 μCi ^99mTc and imaged four hours later. Images were processed using Vivo Quant software. The scale was adjusted manually to get minimal yellow in the tissues.
The stomach and thyroid signals were subtract from the SPECT dataset (FIG. 5). In this experiment, nude female mice (5-week of age) were injected with 3×10^6 BXPC-3-hNIS cells. When tumors reached a diameter of 1 cm, mice were injected I.P. with ^125I sodium iodide (250 μCi) and/or ^99mTc-pertechneate (250 μCi). Four hours post isotope administration, SPECT/CT data were acquired with U-SPECT-II (MiLabs). The SPECT emission data were collected in dual-energy windows to separate the gamma emision energy counts from ^99mTc (140 keV) and ^125I (35 keV). […] Radioiodide thyroid signal subtraction was performed by normalizing the ^125I SPECT data to thyroid tissue on the ^99mTc SPECT data using the image arithmetic tools available in PMOD image fusion software. This was performed in three steps by (1) calculating the normalization factor (i.e., the inverse ratio between the maximum voxel value corresponding to the thyroid tissue on the ^125I SPECT and the maximum voxel value corresponding to the thyroid tissue on the ^99mTc SPECT data set), (2) multiplying each voxel in the ^125I SPECT dataset by this normalization factor, and (3) subtracting the normalized ^125I SPECT dataset from ^99mTc SPECT data set to generate a thyroid subtraction SPECT dataset (FIG. 5C). Similarly, ^99mTc stomach signal subtraction was performed by (1) calculating the normalization factor which in this case is the inverse ratio of the maximum voxel value corresponding to the stomach tissue on the ^99mTc SPECT to the maximum voxel value corresponding to the stomach tissue in the ^125I SPECT data set, (2) multiplying each voxel in the ^99mTc SPECT dataset by this normalization factor, and (3) subtracting the normalized ^99mTc SPECT dataset from ^125I SPECT data set to generate a stomach subtraction SPECT dataset (FIG. 5B).

[2] = target: T1, NIS (Homo sapiens, UniProt Q92911); experiment: iodide mediated quenching of YFP-H148Q/I152L fluorescence; format: cell-based; details: 5 mM KClO4; quenching mediated by 200 mM NaI; FIG. 3
T1 construct: expressed in transfected cells; host or cells: cells transduced with the lentiviral vector
T1 sequence (Q92911 1-643): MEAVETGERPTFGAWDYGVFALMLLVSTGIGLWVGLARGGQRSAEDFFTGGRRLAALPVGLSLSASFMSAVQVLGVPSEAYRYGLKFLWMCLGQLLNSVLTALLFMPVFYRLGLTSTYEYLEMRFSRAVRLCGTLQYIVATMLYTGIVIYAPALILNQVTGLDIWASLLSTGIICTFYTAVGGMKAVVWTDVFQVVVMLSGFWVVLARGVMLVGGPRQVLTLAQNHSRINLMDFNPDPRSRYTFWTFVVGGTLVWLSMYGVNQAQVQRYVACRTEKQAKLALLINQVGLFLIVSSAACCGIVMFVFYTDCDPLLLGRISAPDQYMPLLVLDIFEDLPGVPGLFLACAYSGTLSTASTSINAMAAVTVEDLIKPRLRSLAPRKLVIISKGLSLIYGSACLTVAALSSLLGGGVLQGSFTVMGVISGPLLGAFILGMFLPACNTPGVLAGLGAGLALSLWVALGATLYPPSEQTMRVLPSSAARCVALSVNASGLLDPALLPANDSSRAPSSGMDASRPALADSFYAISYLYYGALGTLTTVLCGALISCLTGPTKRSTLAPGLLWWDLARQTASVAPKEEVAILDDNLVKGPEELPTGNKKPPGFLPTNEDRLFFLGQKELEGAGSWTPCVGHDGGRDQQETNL
Method: 72 hours post infection, the cells are subjected to two color flow cytometry to determine the percentage of cells that express YFP-H148Q/I152L and are tagged with anti-HA antibody conjugated to Alexa Fluor 647. To determine the percentage hNIS variants that can transport iodide into the cell, infected cells are treated with 200 μM NaI. The quenching of YFP-H148Q/I152L fluorescence (output for intracellular iodide uptake) is analyzed by flow cytometry.
Five million cells are infected at a moi of 1 with the lentiviral library transducing HA-hNIS variants. On the third day post infection, the cells are expanded to increase the number of cells expressing each unique NIS variant to limit the potential of it being lost during the selection procedure. On day 5, infected cells that fluoresce brightly are selected for by fluorescence-activated cell sorting (FACS) and collected in HBSS/HEPES buffer Immediately thereafter, these cells are incubated for 5 minutes with KClO4 at a concentration that inhibits iodide transport by non-mutated NIS. Then, NaI is added to the cells to a finale concentration of […], and the cells are incubated for 10 minutes at 37° C. Cells whose fluorescence is quenched in the presence of KClO4 are selected for by flow sorting. […]

[3] = tested on: NIS expressing cells; details: less efficiently than iodide; cited from earlier work
[4] = tested on: NIS polypeptide-mediated uptake in stomach; experiment: NIS imaging of a mouse fed oral CT contrast agent by gavage; format: in vivo; details: mouse with NIS transduced liver, then imaged
From the text: In the following example, ingestion of barium sulfate was used to enable and enhance discrimination of NIS expression in the liver.

[5] = tested on: Mel624 cells; experiment: radiotracer uptake assay in Mel624 cells stably expressing NIS polypeptides; format: cell-based, human; details: for uptake of pertechnetate (Technetium-99m) / uptake of radioiodide (Iodine-125): Mel624 cells stably expressing the NIS polypeptide, 37° C. for 1 hour, +/−300 μM KClO4, gamma counter
Method: Mel624 cells stably expressing a wild-type human NIS polypeptide (Mel-NIS) or one of two mutant NIS polypeptides (Mel-NIS-93E or Mel-NIS-93Q) were plated in 96-well plates at a density that would lead them to confluency on the day of the uptake assay. 1× Hank's balanced salt solution with calcium, magnesium (HBSS) (Cellgro) and 1 mM HEPES was adjusted to pH 7.3 using KOH (HBBS-HEPES) on the day of the assay. Culture medium was removed from the cells, and 150 μL of HBSS-HEPES+/−300 μM KClO4 was added to the wells. The cells were incubated for 10 minutes at room temperature prior to the addition of radiotracer. Radiotracers, ^125I and ^99mTc, were diluted in HBSS-HEPES to about 70,000 to 100,000 CPM/25 μL (CPM, counts per minute). 25 μL of radiotracer was added to the cells in HBSS-HEPES+/−KClO4, and the cells were incubated at 37° C. for 1 hour. The cells were then washed twice with cold HBSS-HEPES buffer and lysed to release the intracellular radiotracer by adding 200 μL 1M NaOH. Lysates were transferred to strip tubes and quantified using a gamma counter.

[6] = tested on: BxPC3 cells (human pancreatic tumor cells); experiment: 123I/99mTc subtraction SPECT of BxPC3 tumors expressing NIS or NIS-93E in athymic mice; format: in vivo; details: subcutaneous BxPC3 tumors; four hours after i.p. 123I and 99mTcO4
Method: Image subtraction is used to discriminate a tumor that concentrates only one of two NIS isotopes from organs that concentrate both isotopes (e.g., thyroid gland, stomach, and salivary glands). BxPC3 cells (human pancreatic tumor cells) stably expressing either wild-type human NIS polypeptides or human mutant NIS-93E polypeptides are implanted subcutaneously in the flanks of athymic mice. Once tumors grow to a diameter of 5-8 mm, ^123I/^99mTc subtraction SPECT is performed using a dual-detector SPECT camera. Four hours after the intraperitoneal administration of 250 μCi ^123I sodium iodide and 250 μCi ^99mTcO4, SPECT/CT data are acquired. The SPECT emission data are collected in dual-energy windows to separate the ^99mTc and ^123I counts. The ^99mTc window is centered at 140 keV, and the ^123I window is placed with a 4% offset above 159 keV to minimize the spillover of the ^99mTc photopeak into the much less intense ^123I photopeak. SPECT reconstruction is performed for each of the two acquisition windows. ^123I SPECT voxel intensities on thyroid tissue are normalized to the corresponding ^99mTc SPECT data, and in this way a normalization factor is determined Each voxel in the ^123I SPECT dataset is then multiplied by this normalization factor, and the normalized ^123I SPECT data is subtracted from the ^99mTc SPECT data to create a subtraction SPECT dataset. […]

Molecule: [125I-].[Na+] [^125I, ^125I sodium iodide]
- accumulation in thyroid [1]: preferentially accumulates
- accumulation in tumor (BXPC-3-hNIS) [1]: does not discriminate between the two isotopes; also recorded: accumulate both isotopes to similar concentrations

Molecule: [K+].[O-][Cl+3]([O-])([O-])[O-] [perchlorate, KClO4]
- effect on iodide mediated quenching of YFP-H148Q/I152L [2]: inhibition
- efficiency of concentration in NIS expressing cells compared to iodide anions [3]: 10 fold

Molecule: O=S(=O)([O-])[O-].[Ba+2] [barium sulfate]
- isotope signals from the stomach [4]: reduced isotope signals from the stomach
- isotope signals from the stomach ([4]; listed as oral contrast agent): significant reduction of the stomach signal

Molecule: [O]=[99Tc](=[O])(=[O])[O-] [^99mTc, ^99mTc-pertechneate]
- accumulation in stomach [1]: preferentially accumulates
- accumulation in tumor (BXPC-3-hNIS) [1]: does not discriminate between the two isotopes; also recorded: accumulate both isotopes to similar concentrations

B1: NIS-93E: mutant human sodium iodide symporter polypeptide, amino acid sequence SEQ ID NO:1 (FIG. 4) (protein, listed as Homo sapiens)
chain: T1 sequence (Q92911 1-643) with G93E
- iodide versus TcO4 concentrating efficiency [5]: concentrate iodide with greater efficiency than TcO4
- concentration of Iodine-125 uptake in tumor cells as compared to non-mutated NIS (NIS WT) ([5]; FIGS. 1A and 1B): decrease
- uptake of pertechnetate (Technetium-99m) [5]: not pertechnetate
- uptake of radioiodide (Iodine-125) [5]: capable of up-taking radioiodide
- uptake of pertechnetate (Technetium-99m) ([5]; listed as G93E): not Technetium-99m
- uptake of radioiodide (Iodine-125) ([5]; listed as G93E): selectively transports Iodine-125
- uptake of pertechnetate (Technetium-99m) ([5]; listed as NIS-G93E): not Technetium-99m
- uptake of radioiodide (Iodine-125) ([5]; listed as NIS-G93E): transport selectively Iodine-125
- isotope concentration by tumors expressing the polypeptide, subtraction SPECT [6]: concentrate only iodide and not pertechnetate

B2: wild-type human NIS polypeptide: wild-type human sodium iodide symporter polypeptide (protein, UniProt Q92911 1-643, looked up)
Sodium/iodide cotransporter: T1 sequence (Q92911 1-643)
- uptake of pertechnetate (Technetium-99m) [5]: Substantial uptake
- uptake of radioiodide (Iodine-125) [5]: Substantial uptake
